{
  "source": "patent US20210253688A1",
  "about": "(UCB, published 2021)",
  "binders": {"B1": {"name": "human Gremlin-1 (full length; recombinant human Gremlin 1) (ligand)", "chain": "KKKGSQGAIPPPDKAQHNDSEQTQSPQQPGSRNRGRGQGRGTAMPGEEVLESSQEALHVTERKYLKRDWCKTQPLKQTIHEEGCNSRTIINRFCYGQCNSFYIPRHIRKEEGSFQSCSFCKPKKFTTMMVTLNCPELQPPTKKKRVTRVKQCRCISIDLD"}, "B2": {"name": "Ab7326 (format in the assay not stated) (antibody, V domains shown)", "VH": "QVQLVESGAEVKKPGATVKISCKVSGYTFTDYYMHWVQQAPGKGLEWMGLVDPEDGETIYAEKFQGRVTITADTSTDTAYMELSSLRSEDTAVYYCATDARGSGSYYPNHFDYWGQGTLVTVSS", "VL": "not shown"}, "B3": {"name": "truncated human Gremlin-1 (E. coli expressed, refolded, N-terminal 6His-TEV tag) (ligand)", "chain": "MGSSHHHHHHSSGENLYFQGSAMPGEEVLESSQEALHVTERKYLKRDWCKTQPLKQTIHEEGCNSRTIINRFCYGQCNSFYIPRHIRKEEGSFQSCSFCKPKKFTTMMVTLNCPELQPPTKKKRVTRVKQCRCISIDLD"}, "B4": {"name": "Ab7326 mouse full length IgG1 (antibody, V domains shown)", "VH": "B2 VH", "VL": "not shown", "notes": "also called anti-Gremlin mIgG; UCB Ab7326 mouse IgG1"}},
  "key": {"[1]": {"target": "T1, BMP4/7 heterodimer (human, UniProt P12644 293-408; P18075 293-431)", "T1 sequence (looked up) 1": "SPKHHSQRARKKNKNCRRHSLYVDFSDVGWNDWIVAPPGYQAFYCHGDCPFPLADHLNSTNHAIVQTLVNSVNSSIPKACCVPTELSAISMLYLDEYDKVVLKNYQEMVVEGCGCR", "T1 sequence (looked up) 2": "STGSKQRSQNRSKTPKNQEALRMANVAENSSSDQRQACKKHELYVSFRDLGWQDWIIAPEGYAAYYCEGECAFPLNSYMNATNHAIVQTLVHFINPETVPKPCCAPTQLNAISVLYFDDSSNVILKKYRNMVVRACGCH", "assay": "cell-based or functional assay"}, "[2]": {"target": "B1", "assay": "cell-based or functional assay"}, "[3]": {"target": "T2, mouse Gremlin (mouse, UniProt O70326 25-184)", "T2 sequence (looked up)": "B1 chain with Q27P, N33T", "assay": "cell-based or functional assay"}, "[4]": {"target": "B1", "assay": "SPR, Biacore T200, 25 °C; mIgG captured on anti-mouse Fc, recombinant human Gremlin 1 titrated from 5 nM; average of 5 determinations", "experimental": "The affinity of anti-Gremlin mIgG for human Gremlin 1 was determined by biamolecular interaction analysis using surface plasmon resonance (SPR) technology on a Biacore T200 system, GE Healthcare Bio-Sciences AB. Anti-Gremlin mIgG was captured by an immobilised anti-mouse Fc surface and Gremlin 1 was titrated over the captured mIgG. The capture ligand (affinipure F(ab′)₂ fragment of goat anti-mouse IgG, Fc fragment specific, 115-006-071, Jackson ImmunoResearch Inc.) was immobilised at 50 μg/ml in 10 mM NaAc, pH 5.0 on flow cell 2 of a CM4 Sensor Chip via amine coupling chemistry, using 600 s activation and deactivation injections, to a level of ˜1600 response units (RU). HBS-EP+ buffer (0.01 M HEPES pH 7.4, 0.15 M NaCl, 3 mM EDTA, 0.05% Surfactant P20) was used as the running buffer with a flow rate of 10 μ1/min. A reference surface was prepared on flow cell 1 by activating and deactivating the surface as for flow cell 2 but omitting the capture ligand.\nThe assay buffer was HBS-EP+ plus an extra 150 mM NaCl to give a final NaCl concentration of 300 mM plus 1% CMD40. A 60 s injection of anti-Gremlin mIgG (at 5 μg/ml in running buffer) was passed over flow cells 1 and 2 to give a capture level of approximately 100 RU on the immobilised anti-mouse IgG, Fc surface. […]\nThe kinetic data was determined using Biacore T200 evaluation software."}},
  "note": "Changes are numbered by the printed parent chain.",
  "data": [
    {"binder": "B1", "values": [
      {"measurement": "IC50, Hek-Id1 reporter gene assay, geometric mean (N=2)", "setting": "[1]", "value": 1.6, "unit": "nM"}
    ]},
    {"binder": "B2", "values": [
      {"measurement": "IC50, Hek-Id1 reporter gene assay, restoration of BMP signalling", "setting": "[2]", "value": 1.3, "unit": "nM"},
      {"measurement": "IC50, Hek-Id1 reporter gene assay, restoration of BMP signalling", "setting": "[3]", "value": 0.2, "unit": "nM"}
    ]},
    {"binder": "B3", "values": [
      {"measurement": "IC50, Hek-Id1 reporter gene assay, geometric mean (N=2)", "setting": "[1]", "value": 1.7, "unit": "nM"}
    ]},
    {"binder": "B4", "values": [
      {"measurement": "Kd", "setting": "[4]", "value": "< 0.1", "unit": "nM"}
    ]}
  ]
}
